Assay results taken from paper PMC11870458.
pKd: −log10 of the molar value.

Tests used:
[1] = target: VsCoV-a7 RBD-human IgG Fc fusion (VsCoV-a7 (bat MERSr-CoV from Vespertilio sinensis, Japan)); assay: BLI
[2] = target: HsItaly2011 RBD-human IgG Fc fusion (HsItaly2011 (bat MERSr-CoV from Hypsugo savii, Italy)); assay: BLI

| Substance | pKd [1] | pKd [2] |
| --- | --- | --- |
| soluble dimeric E.fus ACE2 ectodomain (domain or fragment) | 6.09 | – |
| soluble dimeric R.nor ACE2 ectodomain (from UniProt Q5EGZ1 18-740) (domain or fragment) | – | 6.92 |
